The series concerns Micrococcus lysodeikticus cells. Kind of series: Lysozyme enzyme activity assay of dissolved micropost tips. In kind it is biochemical. To be noted: micropost tips 80% lysozyme and 20% PEO 200 k, vs uncompressed powder. As for the experimental part: To measure the activity of lysozyme, the assay provided by Sigma Aldrich was used which measures the amount of lysed Micrococcus lysodeikticus cells. Briefly, a 200 unit/mL Lysozyme solution in 50 mM Potassium Phosphate Buffer was added to a 0.015% [w/v]Micrococcus lysodeikticus cell suspension in the same buffer. The decrease was recorded in A450 over 5 minutes. Nine micropost tips were fabricated from 80% lysozyme and 20% PEO 200 k and dissolved sets of three micropost tips together. Triplicate assays were performed on each dissolved solution for a total of nine tests and the results were compared to the results of a solution made with lysozyme that was not compressed into a micropost tip.

The values below come from patent publication US12357802B2, “Self-actuating articles” (priority 2017, dated 2025).

On to lysozyme, for which the “enzymatic activity after the manufacturing process” value is “maintain their activity”.
